The results in this text go back to publication PMC6365180 (Structure (London, England : 1993), 2018).

The assay concerns the target TATA box-binding protein (TBP) (UniProt P20226 1-339). Description: SPR.

TATA box-binding protein (TBP), sequence (P20226 whole entry): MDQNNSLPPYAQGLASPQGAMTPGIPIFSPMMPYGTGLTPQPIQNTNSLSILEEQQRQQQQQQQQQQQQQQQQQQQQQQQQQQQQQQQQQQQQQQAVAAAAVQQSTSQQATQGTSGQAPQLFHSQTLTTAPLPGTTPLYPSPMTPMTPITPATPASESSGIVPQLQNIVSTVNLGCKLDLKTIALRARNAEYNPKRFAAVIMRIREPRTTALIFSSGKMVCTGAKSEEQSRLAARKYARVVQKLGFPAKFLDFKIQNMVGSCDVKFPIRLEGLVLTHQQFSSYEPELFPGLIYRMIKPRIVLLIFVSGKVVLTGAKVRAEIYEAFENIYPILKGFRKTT

B1: N-terminal transactivation domain (NTD) of human estrogen receptor alpha, wild type (SNA-M1-Y184) (domain or fragment)
chain: SNAMTMTLHTKASGMALLHQIQGNELEPLNRPQLKIPLERPLGEVYLDSSKPAVYNYPEGAAYEFNAAAAANAQVYGQTGLPYGPGSEAAAFGSNGLGGFPPLNSVSPSPLMLLHPPPQLSPFLQPHGQQVPYYLENEPSGYTVREAGPPAFYRPNSDNRRQGGRERLASTNDKGSMAMESAKETRY
B1 registered a Kd of 53 ± 12 µM.

B2: N-terminal transactivation domain (NTD) of human estrogen receptor alpha, S118D mutant (domain or fragment)
chain: SNAMTMTLHTKASGMALLHQIQGNELEPLNRPQLKIPLERPLGEVYLDSSKPAVYNYPEGAAYEFNAAAAANAQVYGQTGLPYGPGSEAAAFGSNGLGGFPPLNSVSPSPLMLLHPPPQLDPFLQPHGQQVPYYLENEPSGYTVREAGPPAFYRPNSDNRRQGGRERLASTNDKGSMAMESAKETRY
Consider B2, for which the affinity, expressed as Kd, was 3.9 ± 0.4 µM. Against the preceding molecule, the Kd is about 14-fold lower.
